Measured values taken from the supplement of paper PMC10065799, “High-throughput profiling of sequence recognition by tyrosine kinases and SH2 domains using bacterial peptide display” (eLife, 2023).

How the values were obtained:
[1] = target: FGFR3 (UniProt P22607); assay: phosphorylation enrichment, bacterial display (enrichment ratio); higher = better substrate or ligand; peptides without Tyr show the background
[2] = target: Hck (UniProt P08631); assay: as above
[3] = test system: c-Abl (mouse); assay: as above
[4] = target: FGFR1 (UniProt P11362); assay: as above
FGFR1, sequence (P11362 whole entry, looked up): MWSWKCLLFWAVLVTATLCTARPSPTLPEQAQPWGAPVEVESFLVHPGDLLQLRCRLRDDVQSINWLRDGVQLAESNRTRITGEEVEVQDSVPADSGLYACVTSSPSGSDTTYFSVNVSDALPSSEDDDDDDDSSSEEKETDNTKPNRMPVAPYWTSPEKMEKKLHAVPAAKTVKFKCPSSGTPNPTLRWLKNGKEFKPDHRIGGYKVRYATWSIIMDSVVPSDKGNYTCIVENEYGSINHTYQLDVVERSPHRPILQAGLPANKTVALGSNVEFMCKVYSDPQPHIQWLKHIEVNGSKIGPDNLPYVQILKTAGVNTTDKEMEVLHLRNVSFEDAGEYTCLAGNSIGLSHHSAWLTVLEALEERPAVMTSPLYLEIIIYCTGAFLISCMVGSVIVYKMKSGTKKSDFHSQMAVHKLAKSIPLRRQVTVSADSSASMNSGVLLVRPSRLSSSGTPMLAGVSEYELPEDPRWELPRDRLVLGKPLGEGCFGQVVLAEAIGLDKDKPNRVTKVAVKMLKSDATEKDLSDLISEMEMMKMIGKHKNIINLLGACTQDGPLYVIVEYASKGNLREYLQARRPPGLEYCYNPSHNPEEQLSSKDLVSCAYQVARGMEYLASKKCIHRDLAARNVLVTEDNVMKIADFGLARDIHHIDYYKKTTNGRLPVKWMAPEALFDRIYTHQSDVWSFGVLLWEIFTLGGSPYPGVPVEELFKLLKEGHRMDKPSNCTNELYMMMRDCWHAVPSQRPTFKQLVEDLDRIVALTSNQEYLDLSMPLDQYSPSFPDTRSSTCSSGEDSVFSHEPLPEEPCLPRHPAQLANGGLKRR

[5] = test system: Fer (mouse); assay: as above
[6] = target: EPHB2 (UniProt P29323); assay: as above
EPHB2, sequence (P29323 whole entry, looked up): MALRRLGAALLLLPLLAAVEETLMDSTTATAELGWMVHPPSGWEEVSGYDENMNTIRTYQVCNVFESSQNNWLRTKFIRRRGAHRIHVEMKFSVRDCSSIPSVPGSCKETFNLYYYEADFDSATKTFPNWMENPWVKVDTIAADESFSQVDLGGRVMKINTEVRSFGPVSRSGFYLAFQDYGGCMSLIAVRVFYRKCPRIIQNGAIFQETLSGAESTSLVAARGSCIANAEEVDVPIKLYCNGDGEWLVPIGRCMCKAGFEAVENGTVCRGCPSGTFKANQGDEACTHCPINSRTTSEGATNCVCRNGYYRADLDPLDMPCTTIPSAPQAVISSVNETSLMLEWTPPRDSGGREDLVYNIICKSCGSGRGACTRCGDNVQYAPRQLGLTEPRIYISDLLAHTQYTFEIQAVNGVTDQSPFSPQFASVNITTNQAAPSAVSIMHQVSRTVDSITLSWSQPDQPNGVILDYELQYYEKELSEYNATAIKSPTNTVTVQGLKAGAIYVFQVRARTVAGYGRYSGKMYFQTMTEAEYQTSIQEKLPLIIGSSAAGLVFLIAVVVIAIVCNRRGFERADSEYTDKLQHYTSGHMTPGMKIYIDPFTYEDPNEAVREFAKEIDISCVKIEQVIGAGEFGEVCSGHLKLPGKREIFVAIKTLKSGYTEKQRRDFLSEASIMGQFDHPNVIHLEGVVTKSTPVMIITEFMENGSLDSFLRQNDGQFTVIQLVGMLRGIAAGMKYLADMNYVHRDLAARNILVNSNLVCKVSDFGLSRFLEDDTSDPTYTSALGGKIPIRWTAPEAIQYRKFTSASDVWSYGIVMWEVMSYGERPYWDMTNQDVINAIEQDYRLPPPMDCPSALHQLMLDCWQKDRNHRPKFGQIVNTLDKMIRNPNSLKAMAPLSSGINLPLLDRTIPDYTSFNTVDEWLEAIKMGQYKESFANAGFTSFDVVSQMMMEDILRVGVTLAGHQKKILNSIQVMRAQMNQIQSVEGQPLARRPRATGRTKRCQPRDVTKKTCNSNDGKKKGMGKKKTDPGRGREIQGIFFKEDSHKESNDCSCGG

[7] = target: Jak2 (UniProt O60674); assay: as above
Jak2, sequence (O60674 whole entry, looked up): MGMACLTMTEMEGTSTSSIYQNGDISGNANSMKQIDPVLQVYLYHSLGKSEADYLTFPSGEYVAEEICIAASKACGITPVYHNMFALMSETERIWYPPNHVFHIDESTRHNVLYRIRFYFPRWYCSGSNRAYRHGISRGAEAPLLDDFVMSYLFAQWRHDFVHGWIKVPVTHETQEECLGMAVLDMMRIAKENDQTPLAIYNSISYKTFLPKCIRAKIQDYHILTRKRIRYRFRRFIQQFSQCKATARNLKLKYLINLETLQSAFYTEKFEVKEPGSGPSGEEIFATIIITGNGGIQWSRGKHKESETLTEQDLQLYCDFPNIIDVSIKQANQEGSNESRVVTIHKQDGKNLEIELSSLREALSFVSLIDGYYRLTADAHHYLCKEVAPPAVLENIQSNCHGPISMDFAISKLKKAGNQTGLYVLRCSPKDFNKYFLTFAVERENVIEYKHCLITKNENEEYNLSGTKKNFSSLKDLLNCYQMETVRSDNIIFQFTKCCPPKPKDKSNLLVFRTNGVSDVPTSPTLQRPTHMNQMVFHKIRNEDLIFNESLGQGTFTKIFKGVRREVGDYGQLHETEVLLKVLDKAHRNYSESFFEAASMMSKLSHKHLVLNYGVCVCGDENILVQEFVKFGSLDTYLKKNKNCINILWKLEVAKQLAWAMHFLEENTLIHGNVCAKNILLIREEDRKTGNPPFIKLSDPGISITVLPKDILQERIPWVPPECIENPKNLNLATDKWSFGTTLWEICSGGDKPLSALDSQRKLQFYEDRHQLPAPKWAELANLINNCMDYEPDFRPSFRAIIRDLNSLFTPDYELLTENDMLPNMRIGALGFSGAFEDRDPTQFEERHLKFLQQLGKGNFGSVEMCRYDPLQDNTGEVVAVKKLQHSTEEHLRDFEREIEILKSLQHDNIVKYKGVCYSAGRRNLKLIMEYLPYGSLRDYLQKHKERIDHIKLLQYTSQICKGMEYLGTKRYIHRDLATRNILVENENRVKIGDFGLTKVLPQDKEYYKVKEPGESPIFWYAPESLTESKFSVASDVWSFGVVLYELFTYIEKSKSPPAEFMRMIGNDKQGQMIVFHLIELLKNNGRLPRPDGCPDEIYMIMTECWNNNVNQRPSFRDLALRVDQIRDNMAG

[8] = target: Fes (UniProt P07332); assay: as above
Fes, sequence (P07332 whole entry, looked up): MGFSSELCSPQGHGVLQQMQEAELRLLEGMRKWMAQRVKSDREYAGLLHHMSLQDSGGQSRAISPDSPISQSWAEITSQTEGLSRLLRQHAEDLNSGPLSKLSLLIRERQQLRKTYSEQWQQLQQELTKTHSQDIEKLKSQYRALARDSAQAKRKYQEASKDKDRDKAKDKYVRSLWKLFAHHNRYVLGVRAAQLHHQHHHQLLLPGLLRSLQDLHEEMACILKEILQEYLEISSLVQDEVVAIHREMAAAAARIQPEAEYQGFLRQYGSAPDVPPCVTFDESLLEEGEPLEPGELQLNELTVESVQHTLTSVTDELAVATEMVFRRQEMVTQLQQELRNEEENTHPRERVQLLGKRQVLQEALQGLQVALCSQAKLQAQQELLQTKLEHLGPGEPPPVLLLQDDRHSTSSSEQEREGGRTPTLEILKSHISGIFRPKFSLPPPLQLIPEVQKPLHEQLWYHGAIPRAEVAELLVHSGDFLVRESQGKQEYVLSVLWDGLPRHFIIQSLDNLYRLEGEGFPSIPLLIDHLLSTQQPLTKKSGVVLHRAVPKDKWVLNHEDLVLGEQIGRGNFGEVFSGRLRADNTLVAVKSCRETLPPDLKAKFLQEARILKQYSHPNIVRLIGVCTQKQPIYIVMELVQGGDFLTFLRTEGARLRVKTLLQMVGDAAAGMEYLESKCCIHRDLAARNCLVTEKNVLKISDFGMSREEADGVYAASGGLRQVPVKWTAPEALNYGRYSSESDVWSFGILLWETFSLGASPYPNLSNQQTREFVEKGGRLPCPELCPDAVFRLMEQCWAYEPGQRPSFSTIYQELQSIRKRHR

[9] = target: EPHB1 (UniProt P54762); assay: as above
[10] = test system: AncSZ; assay: as above
[11] = test system: c-Src; assay: as above
[12] = target: MERTK (UniProt Q12866); assay: as above
[13] = target: Fyn (UniProt P06241); assay: as above
Fyn, sequence (P06241 whole entry, looked up): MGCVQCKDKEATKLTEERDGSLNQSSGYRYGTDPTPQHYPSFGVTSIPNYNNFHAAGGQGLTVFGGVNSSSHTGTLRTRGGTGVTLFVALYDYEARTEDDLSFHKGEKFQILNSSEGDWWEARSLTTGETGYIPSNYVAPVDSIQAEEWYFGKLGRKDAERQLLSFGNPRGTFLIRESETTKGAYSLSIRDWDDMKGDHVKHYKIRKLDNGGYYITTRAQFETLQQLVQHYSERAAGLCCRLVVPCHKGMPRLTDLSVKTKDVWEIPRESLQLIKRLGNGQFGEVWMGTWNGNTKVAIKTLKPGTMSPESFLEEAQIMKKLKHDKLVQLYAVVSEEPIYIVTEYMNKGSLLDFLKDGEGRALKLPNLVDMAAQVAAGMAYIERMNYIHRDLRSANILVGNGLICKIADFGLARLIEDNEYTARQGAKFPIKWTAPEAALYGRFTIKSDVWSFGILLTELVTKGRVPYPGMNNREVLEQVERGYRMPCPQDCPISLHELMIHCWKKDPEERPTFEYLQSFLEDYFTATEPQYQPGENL

[14] = target: SHP2-C SH2; assay: SH2 binding enrichment of the phosphorylated peptide, bacterial display (enrichment ratio); higher = better substrate or ligand; peptides without Tyr show the background
[15] = target: c-Src SH2; assay: as above
[16] = target: Grb2 SH2 (UniProt P62993); assay: as above
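Throughout, for SH2 binding enrichment of the phosphorylated peptide, bacterial display: peptide library displayed on the E. coli surface as eCPX fusions, selected cells deep-sequenced, score is each peptide's frequency after selection divided by its frequency in the input.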
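Throughout, for phosphorylation enrichment, bacterial display: 11-residue human phosphosite peptides and single-mutation variants displayed on the E. coli surface, counted by deep sequencing, each peptide's frequency after selection divided by its frequency in the unselected input library; frequency after pTyr selection over input frequency; kinase dosed for 20-30% of maximal phosphorylation in three min.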

Hck, sequence (P08631 whole entry, looked up): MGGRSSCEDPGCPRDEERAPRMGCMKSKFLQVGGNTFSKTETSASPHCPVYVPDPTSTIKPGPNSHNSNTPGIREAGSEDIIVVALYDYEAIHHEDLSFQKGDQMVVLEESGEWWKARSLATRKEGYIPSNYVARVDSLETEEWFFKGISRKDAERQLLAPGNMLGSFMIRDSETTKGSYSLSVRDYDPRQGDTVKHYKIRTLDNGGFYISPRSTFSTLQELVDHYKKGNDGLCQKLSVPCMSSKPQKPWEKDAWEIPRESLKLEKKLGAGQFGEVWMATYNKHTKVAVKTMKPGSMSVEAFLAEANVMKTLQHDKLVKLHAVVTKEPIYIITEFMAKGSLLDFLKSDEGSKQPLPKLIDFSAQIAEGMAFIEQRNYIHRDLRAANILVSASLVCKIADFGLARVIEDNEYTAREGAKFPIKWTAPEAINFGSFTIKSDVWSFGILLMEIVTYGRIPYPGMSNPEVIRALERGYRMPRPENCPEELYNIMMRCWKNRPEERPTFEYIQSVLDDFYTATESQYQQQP

Row | Sequence | SH2 binding enrichment [14] | SH2 binding enrichment [15] | SH2 binding enrichment [16] | phosphorylation enrichment [1] | phosphorylation enrichment [2] | phosphorylation enrichment [3] | phosphorylation enrichment [4] | phosphorylation enrichment [5] | phosphorylation enrichment [6] | phosphorylation enrichment [7] | phosphorylation enrichment [8] | phosphorylation enrichment [9] | phosphorylation enrichment [10] | phosphorylation enrichment [11] | phosphorylation enrichment [12] | phosphorylation enrichment [13]
1 | FGAHNHHPLPV [OAT_Y55_Y55H_YF] | 1.14 | 0.818 | 1.03 | 0.694 | 0.457 | 0.579 | 0.386 | 0.505 | 0.54 | 0.583 | 0.636 | 0.393 | 0.58 | 0.477 | 0.496 | 0.369
2 | CNPLRYPVLMS [OR2T1_Y182] | 0.875 | 0.742 | 0.975 | 0.621 | 0.518 | 0.896 | 0.476 | 0.453 | 0.567 | 0.758 | 0.913 | 0.549 | 0.839 | 0.498 | 0.428 | 0.5
3 | FEEVVYQAMEE [TACC3_Y684] | 0.883 | 0.504 | 0.755 | 0.955 | 1.74 | 1.62 | 0.621 | 1.21 | 0.737 | 1.35 | 1.54 | 0.838 | 1.86 | 3.34 | 0.744 | 2.12
4 | QQMGTYGVRAA [ICAM2_Y260_R256Q] | 0.373 | 0.37 | 1.07 | 0.417 | 3.77 | 0.442 | 0.392 | 0.339 | 0.414 | 0.313 | 0.579 | 0.281 | 0.33 | 2.48 | 0.658 | 2.06
5 | DFLEKYFKFGC [NNMT_Y24_S29C_YF] | 0.763 | 0.674 | 0.84 | 0.73 | 0.417 | 0.768 | 0.497 | 0.554 | 0.545 | 0.993 | 1.38 | 0.55 | 1.11 | 0.549 | 0.507 | 0.435
6 | SLDLSYFTTSS [EMD_Y181_P183T_YF] | 0.675 | 0.55 | 0.803 | 0.605 | 0.451 | 0.644 | 0.499 | 0.37 | 0.475 | 1.04 | 0.836 | 0.468 | 0.876 | 0.382 | 0.371 | 0.38
7 | DDYDLYGGEKF [PTPN11_Y66_Y62D] | 0.59 | 0.553 | 0.76 | 0.681 | 2.25 | 0.871 | 0.507 | 0.957 | 2.85 | 0.963 | 1.1 | 0.915 | 1.51 | 2.07 | 0.439 | 1.7
8 | RCLKDYGEFEV [GINS1_Y156] | 0.888 | 0.685 | 0.979 | 0.82 | 0.635 | 1.12 | 0.399 | 1.16 | 0.626 | 1.45 | 1.13 | 0.5 | 1.1 | 1.19 | 0.524 | 0.677
9 | SGASGYSATST [CERT1_Y143] | 0.578 | 0.486 | 0.704 | 0.446 | 0.478 | 0.468 | 0.478 | 0.448 | 0.514 | 0.539 | 0.594 | 0.391 | 0.594 | 0.417 | 0.44 | 0.491
10 | TVQVAYFTVMM [SPATA17_Y83_M86V_YF] | 0.651 | 0.415 | 0.775 | 1.09 | 0.61 | 0.921 | 0.729 | 0.842 | 0.758 | 1.3 | 1.55 | 0.838 | 1.44 | 0.666 | 0.486 | 0.595
11 | NPQKSCFIRLY [WAS_Y83_Y83C] | 0.654 | 0.533 | 0.783 | 0.769 | 0.494 | 0.783 | 0.441 | 0.481 | 0.503 | 1.07 | 1.14 | 0.597 | 1.02 | 0.403 | 0.396 | 0.504

Second part, led by results:

Row | SH2 binding enrichment [14] | SH2 binding enrichment [15] | SH2 binding enrichment [16] | Sequence | phosphorylation enrichment [1] | phosphorylation enrichment [2] | phosphorylation enrichment [3] | phosphorylation enrichment [4] | phosphorylation enrichment [5] | phosphorylation enrichment [6] | phosphorylation enrichment [7] | phosphorylation enrichment [8] | phosphorylation enrichment [9] | phosphorylation enrichment [10] | phosphorylation enrichment [11] | phosphorylation enrichment [12] | phosphorylation enrichment [13]
12 | 0.831 | 0.557 | 0.978 | NVVQEYERVII [NPHS2_Y131_K126N] | 0.668 | 0.589 | 0.633 | 0.59 | 4.44 | 2.22 | 0.772 | 0.942 | 2.13 | 1.17 | 0.485 | 0.442 | 0.47
13 | 0.607 | 0.581 | 0.642 | QMIETYFDFRV [NSMF_Y506_L511V] | 4.49 | 2.77 | 0.887 | 5.84 | 0.679 | 1.46 | 2.78 | 1.39 | 2.29 | 1.77 | 4.53 | 1.09 | 3.37
14 | 1.26 | 0.719 | 1.13 | QSSEGYDLGDR [KIAA1210_Y564_G565D] | 0.714 | 0.546 | 1.12 | 0.416 | 0.607 | 0.853 | 1.09 | 1.43 | 0.644 | 1.41 | 0.688 | 0.501 | 0.948
15 | 0.58 | 0.413 | 0.862 | QEIATYRRLLE [KRT14_Y415] | 0.68 | 0.453 | 0.563 | 0.509 | 0.411 | 0.53 | 0.693 | 0.936 | 0.418 | 0.689 | 0.503 | 0.464 | 0.562
16 | 0.666 | 0.972 | 0.747 | YQLENCCNGGG [INS_Y108_Y108C] | 0.621 | 0.563 | 0.556 | 0.547 | 0.535 | 0.522 | 0.763 | 0.903 | 1.05 | 0.829 | 0.59 | 0.601 | 0.689
17 | 0.992 | 1.47 | 0.808 | PYGQWYESHYA [RPS8_Y113_R110G] | 2.15 | 5.96 | 1.06 | 2.7 | 20.6 | 15.1 | 1.09 | 2.16 | 14.5 | 1.55 | 6.96 | 9.28 | 6.11
